Experiments:
[1] = target: Crotalus durissus terrificus (C.d.t.) venom; assay: ELISA, C.d.t. venom coat, 1:625
[2] = target: Crotalus durissus terrificus (C.d.t.) venom; assay: ELISA, C.d.t. venom coat, undiluted
[3] = target: Crotalus durissus terrificus (C.d.t.) venom; assay: ELISA, C.d.t. venom coat, 1:125
[4] = target: Crotalus durissus terrificus (C.d.t.) venom; assay: ELISA, C.d.t. venom coat, 1:625; remark: listed apart in the source
[5] = target: Crotalus durissus terrificus (C.d.t.) venom; assay: ELISA, C.d.t. venom coat, 1:62,500
[6] = target: Crotalus durissus terrificus (C.d.t.) venom; assay: ELISA, C.d.t. venom coat, 1:5
[7] = target: Crotalus durissus terrificus (C.d.t.) venom; assay: ELISA, C.d.t. venom coat, 1:3125
[8] = target: Crotalus durissus terrificus (C.d.t.) venom; assay: ELISA, C.d.t. venom coat, 1:312,500
[9] = target: Crotalus durissus terrificus (C.d.t.) venom; assay: ELISA, C.d.t. venom coat, 1:25
[10] = target: Crotalus durissus terrificus (C.d.t.) venom; assay: ELISA, C.d.t. venom coat, 1:125; remark: listed apart in the source
[11] = target: Crotalus durissus terrificus (C.d.t.) venom; assay: ELISA, C.d.t. venom coat, 1:3125; remark: listed apart in the source
[12] = target: Crotalus durissus terrificus (C.d.t.) venom; assay: ELISA, C.d.t. venom coat, 1:25; remark: listed apart in the source

preimmune IgY (antibody)
ELISA absorbance [1]: < 0 OD | ELISA absorbance [2]: 0.003 OD | ELISA absorbance [3]: 0.003 OD | ELISA absorbance [4]: 0 OD | ELISA absorbance [5]: 0.001 OD | ELISA absorbance [6]: < 0 OD | ELISA absorbance [7]: 0.002 OD | ELISA absorbance [8]: 0.01 OD | ELISA absorbance [9]: 0 OD | ELISA absorbance [10]: < 0 OD | ELISA absorbance [11]: < 0 OD | ELISA absorbance [12]: 0.016 OD
